Key:
E. coli = assay: Checkerboard assay (MIC in combination, FIC index); type: cell-based, Escherichia coli
Method: LNT113 was vertically diluted 2-fold and the antibiotic was serially diluted horizontally in a 96-well plate. Bacterium at a concentration of 10^6 CFU/ml were added to each well in a CAA medium. […] The fractional inhibitory concentration (FIC) for the LNT113 or antibiotic was calculated by dividing the MIC of two drugs by combining it with the MIC of each drug alone. […] The FICI was considered as a synergistic effect ≤0.5, an additive >0.5 ˜≤1, an independent effect (indifference)>1.0 ˜≤2, and an antagonistic effect (antagonism) >2.

E. coli ATCC 8739 = assay: 1-N-phenylnaphthylamine (NPN) absorption analysis, outer membrane permeability; type: cell-based, Escherichia coli; conditions: 2 μM
Method: NPN absorption analysis was performed by the previously described method (Helander and Mattila-Sandholm, 2000). In other words, E. coli ATCC 8739 grown to an exponential phase (OD600=0.4) was washed and resuspended with buffer solution (5 mM HEPES, pH 7.2) to about 10^8 cells/ml. 40 μM NPN (Sigma-Aldrich) 50 μl was mixed with the purified endolysin or Cecropin A (AbClon, Korea) 50 μl so that the final concentration was 2 μM in a 96-well black plate. Outer membrane permeation agents, 1 mM EDTA (Duchefa) and 2 μM Polymyxin B (Sigma-Aldrich) were used as a positive control group. Then, cell suspension 100 μl was added to each well, and cultured at 37° C. for 5 minutes. Buffer alone, buffer+NPN, cell suspension+buffer and cell suspension+buffer+NPN were used as a negative control group. Fluorescence was measured at excitation (350 nm) and emission (420 nm) using a microplate reader (SpectraMax iD3, Molecular Devices, USA). An NPN absorption factor was calculated by dividing the fluorescence value after background removal (the value that the value without NPN subtracted from the fluorescence value of the cell mixture with the sample) with the fluorescence value of the cell suspension with buffer subtracted from the fluorescence value of buffer without NPN.

P. aeruginosa = assay: MIC, broth microdilution; type: cell-based, Pseudomonas aeruginosa
Method: (§1) The MIC of the LNT113 or antibiotic was determined using modification of the broth microdilution method in a 96-well, round bottom, microplate according to the previously described method (Heselpoth et al., 2019). Exponentially grown cells were diluted to a concentration of 10^6 CFU/ml in a CAA medium, and then cultured with recombinant LNT113 (1-64 μg/ml) or antibiotics at 35° C. for 20 hours. […] The MBC was defined as the lowest concentration of the antibacterial agent with no growth on a plate. All analyses were performed in duplicate.

K. pneumoniae = assay: Antibacterial activity analysis (colony count after 2 hours in buffer); type: cell-based, Klebsiella pneumoniae; conditions: 2 μM
Method: The antibacterial activity of the purified protein was tested for E. coli and various K. pneumoniae strains. The bacterium were grown to an exponential phase (OD600=0.5) and harvested by centrifugation at 12,000×g for 3 minutes. Then, the pellets were washed with reaction buffer solution (20 mM Tris-HCl, pH 7.5) and diluted to about 10^6 cells/ml in the buffer solution. Then, 100 μl bacterial suspension was mixed with the purified endolysin of 100 μl in the reaction buffer solution and incubated at 37° C. for 2 hours. Finally, the mixture was diluted with PBS and loaded on an LB plate. After culturing at 37° C. overnight, the bacterial colonies were counted. All the analysis was performed in triplicate.
The same reaction was performed for the selected subject bacterium in 20 mM HEPES-NaOH, 150 mM NaCl [pH 7.4], and the unique antibacterial activity of Tris and dependence of endolysin for turgor pressure were excluded (FIG. 10a and FIG. 10b). […] The bacterial cells grown geometrically were cultured with 2 μM endolysin in low tonicity buffers (20 mM Tris-HCl, pH 7.5 or 20 mM HEPES, pH 7.5) or high tonicity buffers (buffer solution comprising 150 mM NaCl) at 37° C. for 2 hours. The cells treated with storage buffer solution (20 mM Tris-HCl, pH 7.5, 150 mM NaCl buffer solution (pH 7.5)) were used as a negative control group. The dotted line represents the detection limit (1 Log CFU/ml).

[1] = test system: various gram-negative bacterium; assay: MIC, summary over Table 4 strains; type: cell-based; conditions: strains of Table 4
Method: as §1

B1: LNT113: fusion polypeptide: Cecropin A, (GGGGS)3 linker, mutant endolysin mtEC340; recombinant form with C-terminal His tag (protein)
chain: MKWKLFKKIEKVGQNIRDGIIKAGPAVAVVGQATQIAKGGGGSGGGGSGGGGSVSRNISNNGIKFTAAFEGFRGTAYRATPNEKYLTIGYGSYGPHVEPGKTITPGQGLLLLNRDMAKAVAAVDAVAHHSLTQSQFDAVCDLVYNAGAGVIAAATGTGKALRSGDVATLRAKLALFINQNGKPLLGLRRRTAGRLALFDGKPWQEAEAIGRAVKG
modifications: synthetic_Met+Cecropin A+GGGGS3 linker+mtEC340
notes: fusion polypeptide: Cecropin A, (GGGGS)3 linker, mutant endolysin mtEC340; recombinant form with C-terminal His tag
- MIC of endolysin combined with colistin: LNT113 (E. coli; E. coli ATOCB739, Colistin 0): 8 µg/mL
- MIC of endolysin combined with colistin: LNT113 (E. coli; E. coli ATOCB739, Colistin 0.0625): 4 µg/mL
- MIC of endolysin combined with colistin: LNT113 (E. coli; E. coli ATOCB739, Colistin 0.5): 2 µg/mL
- MIC of endolysin combined with colistin: LNT113 (E. coli; E. coli ATOCB739, Colistin 1): 1 µg/mL
- MIC of endolysin combined with colistin: LNT113 (E. coli; E. coli FORC81, Colistin 0): 8 µg/mL
- MIC of endolysin combined with colistin: LNT113 (E. coli; E. coli FORC81, Colistin 1): 4 µg/mL
- MIC of endolysin combined with colistin: LNT113 (E. coli; E. coli FORC81, Colistin 4): 2 µg/mL
- MIC of endolysin combined with colistin: LNT113 (E. coli; E. coli FORC81, Colistin 8): <0.25 µg/mL
- MIC of endolysin combined with colistin: LNT113 (E. coli; E. coli UPEC3150, Colistin 0): 8 µg/mL
- MIC of endolysin combined with colistin: LNT113 (E. coli; E. coli UPEC3150, Colistin 0.0625): 4 µg/mL
- MIC of endolysin combined with colistin: LNT113 (E. coli; E. coli UPEC3150, Colistin 0.5): 2 µg/mL
- MIC of endolysin combined with colistin: LNT113 (E. coli; E. coli UPEC3150, Colistin 2): 1 µg/mL
- increase of membrane penetration (NPN) (E. coli ATCC 8739): 1.8 times
- membrane penetration relative to cecropin A alone (NPN) (E. coli ATCC 8739): 1.3 fold
- MIC (P. aeruginosa; P. aeruginosa ATCC 15522): 8 µg/mL
- MIC (P. aeruginosa; P. aeruginosa F102): 16 µg/mL
- MIC (P. aeruginosa; P. aeruginosa F125): 4 µg/mL
- MIC (P. aeruginosa; P. aeruginosa F141): 16 µg/mL
- MIC (P. aeruginosa; P. aeruginosa F171): 32 µg/mL
- MIC (P. aeruginosa; P. aeruginosa F388): 32 µg/mL
- MIC (P. aeruginosa; P. aeruginosa PA01): 4 µg/mL
- antibacterial activity (number of bacterium) (K. pneumoniae; K. pneumoniae ATCC700603, KCTC2208, CCARM10143, F85, 2 hours, Tris-HCl pH 7.5): more excellent antibacterial activity
- effect of adding NaCl on antibacterial activity (K. pneumoniae; K. pneumoniae KCTC 2208, Tris or Hepes buffer with 150 mM NaCl): negative effect of salt presence was significantly reduced
- increase in activity compared to mtEC340 (K. pneumoniae; K. pneumoniae strains, 2 hours): ≤ 4 log
- viable bacterial cells after culturing for 2 hours (K. pneumoniae; all tested K. pneumoniae strains): No viable bacterial cells were detected
- MIC range [1]: 4 to 32 µg/mL

— US12102667B2, “Polypeptides and antibiotics against gram-negative bacterium comprising the same” (priority 2021, dated 2024)
